Consider five variants from publication PMC11032447.

B1: mouse secretagogin [mouse] / helix-b of the Habc domain of mouse syntaxin-4 [mouse] (parent)
chain 1: MDNARRKTPARLDAACFWQIWQRFDKEEKGYIRETELDAFFDHLLAKSGTEDTLMEENVQKVKEQLMTSHNVSKEGRILMKELASMFLSEDENFLLFFRLETPLDNSVEFMQIWRKYDADSSGFISAAELCNFLRDLFLHHKKNISEAELEEYTSTMMKIFDKNKDGRLDLNDLARILALQENFLLQFKMDASSTEERKRDFEKIFAHYDVSKTGALEGPEVDGFVKDMMELVQPSISGVDLDKFREILLRHCDVNKDGKIQKSELALCLGLKINP
chain 2: TPLPEESMKQGLQNLREEIKQLGREVRAQLKAIEPQKE

In this assay the parent is B1. The assay is described as follows: ITC. To be noted: with helix-b of the Habc domain of mouse syntaxin-4 [mouse]. Further details: reference not given here.
chain 1 R198A: the ratio to parent came out at 1.99. For chain 1 L270A, the ratio to parent turned out to be 39.8. The result for chain 1 M229E reads 12.8; that for chain 1 M229A, 3.98. Under chain 1 V233A stands 0.31.
